Results on one molecule are retold here after patent publication US9586990B2, “Enzymes for transforming ergopeptines and method therefor” (Erber Aktiengesellschaft, priority 2012, dated 2017).

A short description of series [1]: temperature stability of the enzyme. The class given is biochemical. Here is the method:
In order to determine the temperature stability, the enzyme was incubated for 1 h at varying temperatures ranging from 10° C. to 60° C. After this, the enzyme solutions were incubated at concentrations of 0.1 μg/ml in Teorell-Stenhagen universal buffer (pH 7.0) with 0.1 mg/ml BSA and 5 mg/kg ergotamine at 25° C.

The nature of series [2]: degradation assay in the in-vitro rumen model. As to conditions: 1 μg/ml enzyme, 5 mg/kg ergotamine, rumen juice diluted 1:1, 39° C., HPLC/ESI-MS/MS.
The nature of series [3]: pH stability of the enzyme. The format is biochemical. As to conditions: 1 h at 25° C. at pH 2 to pH 12; then assay at pH 7.0, 25° C. Here is the method:
In order to determine the pH stability, the enzyme was incubated for 1 h at 25° C. at varying pH values ranging from pH 2 to pH 12. After this, the enzyme solutions in concentrations of 0.1 μg/ml were incubated with 0.1 mg/ml BSA and 5 mg/kg ergotamine in Teorell-Stenhagen universal buffer (pH 7.0) at 25° C.

Series [4] is described as follows: activity (detoxification) assay of the purified his-tagged enzyme with ergotamine. The format is biochemical. As to conditions: FIG. 1; 50 mM sodium phosphate buffer pH 7.0, 25° C.; enzyme 0.079 μg/ml, ergotamine 5 mg/kg. The method, then:
(§1) The gene with the sequence ID No. 2, which codes for an α/β-hydrolase comprising a catalytic triad of S94-D234-H270, was cloned into the expression vector pET28a(+) by applying standard methods, transformed and expressed in E. coli. Following the expression in E. coli BL21(DE3), the his-tagged enzyme was purified by affinity chromatography. The enzyme concentration was determined using a Pierce BSA Protein Assay Kit, and the enzyme was used in activity assays. The assays were carried out in 50 mM sodium phosphate buffer (pH 7.0) at 25° C.
In the context of the detoxification assays, enzyme concentrations of 0.079 μg/ml and ergotamine concentrations of 5 mg/kg were used.
The samples were analyzed using HPLC-FLD or HPLC-MS/MS, each by analytically determining the respective concentration of the sum of the respective epimers. Simultaneously with the determination of the ergopeptine concentration during the enzymatic reaction, the formation of the ergo hydroxy acid (metabolite 1) and of the ergoproline cyclodipeptide (metabolite 2) was observed. During the continued reaction course, the conversion of metabolite 1 to ergine was detected.

Series [5] can be described thus: assay for reacting the six ergopeptines and their isomeric forms. The class given is biochemical. The note with it: 1.58 μg/ml enzyme, concentrations equimolar to 10 mg/kg ergotamine; pH 7.0, 25° C.; FIG. 2. The method, then: as §1
A further assay for reacting the six ergopeptines, namely ergotamine, ergovaline, ergocomine, ergocristine, ergocryptine or ergosine, and their respective isomeric forms, namely ergotaminine, ergovalinine, ergocominine, ergocristinine, ergocryptinine and ergosinine, used 1.58 μg/ml of the enzyme with sequence ID No. 1 and 10 mg/kg ergotamine, or the equimolar (summation) concentrations of the remaining ergopeptines or their epimers.
The samples were analyzed using HPLC-FLD or HPLC-MS/MS, each by analytically determining the respective concentration of the sum of the respective epimers. […] During the continued reaction course, the conversion of metabolite 1 to ergine was detected.

The nature of series [6]: temperature range of the activity. The class given is biochemical. As to conditions: 0.1 μg/ml enzyme, 5 mg/kg ergotamine, Teorell-Stenhagen universal buffer pH 9.0.

B1: enzyme with the sequence ID No. 1: α/β-hydrolase with catalytic triad S94-D234-H270, coded by gene sequence ID No. 2, cleaving ergopeptines in the cyclol ring (protein, listed as Rhodococcus erythropolis)
chain: MPLVVLSDGTRIHVETSGNGVPALVPCVGSSVPFERTFGEELKTDIQYNFVEVRGTSRSDGEPSEVASLDRISDDLEEVRQLLGLDKVIALGQSRNGMMAAHYAQKYPNSVLHLVTIGTPASLSMIKNEEYWNAFADDERKRLRAENDAAMEREGLLDLDNLNTAEKIVRLFDLEGAVYFYDPTTLMNDWWDASLLSRTFEVVMASNMGWADFDLVQTLQNSDVPAFVTFGKYDFMVSPLPKPGNPVDGKAGLFEDIPGVRVEVFEKSGHFPYWEQEQEFARRYRDWVATLPESAVRAAEAMTPNGIRQ
With B1, the “temperature up to which the enzyme is stable” value in series [1] (1 h preincubation at 10° C. to 60° C., then 0.1 μg/ml enzyme, pH 7.0, 0.1 mg/ml BSA, 5 mg/kg ergotamine, 25° C.) is not above 30 °C. In addition, the “activity after incubation at 40° C.” value in series [1] (1 h preincubation at 40° C., then assay at pH 7.0, 25° C.) is given as “still displaying some activity”. Further, the “conversion of ergotamine in the rumen model” value in series [2] is “completely converted into ergine and lysergic acid”. In series [3], the “activity outside the pH 6 to pH 9 range after preincubation” value is listed as “strongly decreasing activity”. Further, in series [4], the “time to almost complete degradation of ergotamine to ergine” value was not above 4 h. Further, in series [5], the “reaction courses of all other ergopeptines and their isomeric forms relative to ergotamine” value is “comparable”. Also, the “temperature optimum of activity, based on the starting speed” value in series [6] was found to be 35 °C.
